From patent US20240352445A1 (ABWIZ BIO, published 2024)
Residue numbers refer to the chain shown, from its start.

B1: SEQ ID NO 12 (antibody, V domains shown)
VH: EVQLVESGGGLVQPGGSLRLSCTVSGFSLSTYAMSWVRQAPGKGLEWIGVIASNADTYYASWAKGRFTISRDNSKNTLYLQMNSLRAEDTAVYYCARHPGSAGYGYAVYYAMDPWGQGTLVTVSS
VL: DIQMTQSPSSLSASVGDRVTITCQASQPIHYAINWYQQKPGKAPKLLIYGTSHRKMGVPSRFSGSGSGTDYTLTISSLQPEDFATYYCQQGYIVALKFGGGTKVEIK
notes: also called selected clone from LxC libraries; LxC clone
B2: SEQ ID NO 16 (antibody, V domains shown)
VH: B1 VH
VL: B1 VL with P28D, I29V, H30K, H53S, K55G, M56E, I93V, A95S, L96I, K97F
notes: As m4
B3: SEQ ID NO 17 (antibody, V domains shown)
VH: B1 VH
VL: DIQMTQSPSSLSASVGDRVTITCQASQPIYYGINWYQQKPGKAPKLLIYGHTYRAWGVPSRFSGSGSGTDFTLTISSLQPEDFATYYCQQGYRVGLGFGGGTKVEIK
notes: As m4
B4: SEQ ID NO 18 (antibody, V domains shown)
VH: B1 VH
VL: DIQMTQSPSSLSASVGDRVTITCKASEDIRYGLNWYQQKPGKAPKLLIYGGSYLRWGVPSRFSGSGSGTDYTLTISSLQPEDFATYYCQQGYRVPIRFGGGTKVEIK
notes: As m4; also called selected clone from LxC libraries; LxC clone
B5: SEQ ID NO 15 (antibody, V domains shown)
VH: B1 VH
VL: B1 VL with P28K, H53Y, R54L, K55G, M56G, Y71F, A95P, L96N, K97S
notes: As m4

Each binder was assayed against SARS-CoV-2 spike protein trimer, wild type (SARS-CoV-2, UniProt P0DTC2 16-1213) (assay: ELISA, purified IgG).
B1: binds.
B2: binds.
B3: binds.
B4: binds.
B5: binds.
